Results published in paper PMC3861084 (Molecular Biology of the Cell, 2013).

Molecular target: T1, pY14–Cav-1–mRFP (Cav-1–monomeric red fluorescent protein phosphorylated at Tyr-14) (canine, UniProt P33724 1-178, phosphotyrosine at 14)
T1 sequence (looked up): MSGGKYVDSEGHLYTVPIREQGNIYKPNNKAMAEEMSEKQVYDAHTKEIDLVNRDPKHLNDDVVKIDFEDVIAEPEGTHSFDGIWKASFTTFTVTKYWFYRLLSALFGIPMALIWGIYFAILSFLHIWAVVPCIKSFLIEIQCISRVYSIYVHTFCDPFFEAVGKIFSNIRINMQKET
Test: far-Western

B1: GST fused to the Src SH2 domain (domain or fragment, chicken, UniProt P00523 148-251, looked up)
chain: WYFGKITRRESERLLLNPENPRGTFLVRESETTKGAYCLSVSDFDNAKGLNVKHYKIRKLDSGGFYITSRTQFSSLQQLVAYYSKHADGLCHRLTNVCPTSKPQ
- binding result: binds
